Data set [1] deals with Pgm(692–768)* (Paramecium tetraurelia). As to the kind of experiment: NMR titration; 100 μM 15N-Pgm(692–768)* titrated with 50 to 1000 μM H3(1–19), 1H-15N HSQC at 800 MHz, 5 mM HEPES pH 6.8, 25 mM NaCl, 20 °C; apparent KD from the chemical shift perturbations of E739, assuming 1:1 binding; 1H-1H TOCSY on the final titration point.
Data set [2] deals with H3(1–19)K4me3-b (Paramecium tetraurelia). As to the kind of experiment: ELISA; C-terminally biotinylated peptides (4 μM) on streptavidin-coated plates; purified MBP or MBP-CRD fusions (10 to ~100 nM) in buffer C (25 mM Tris pH 7.4, 150 mM NaCl, 0.1% BSA, 0.05% Tween 20), 4 °C overnight; anti-MBP-HRP, absorbance at 450 nm.
Data set [3] addresses T1, MBP-Pgm (Paramecium tetraurelia, UniProt A0DFJ7 1-1065).
T1 sequence: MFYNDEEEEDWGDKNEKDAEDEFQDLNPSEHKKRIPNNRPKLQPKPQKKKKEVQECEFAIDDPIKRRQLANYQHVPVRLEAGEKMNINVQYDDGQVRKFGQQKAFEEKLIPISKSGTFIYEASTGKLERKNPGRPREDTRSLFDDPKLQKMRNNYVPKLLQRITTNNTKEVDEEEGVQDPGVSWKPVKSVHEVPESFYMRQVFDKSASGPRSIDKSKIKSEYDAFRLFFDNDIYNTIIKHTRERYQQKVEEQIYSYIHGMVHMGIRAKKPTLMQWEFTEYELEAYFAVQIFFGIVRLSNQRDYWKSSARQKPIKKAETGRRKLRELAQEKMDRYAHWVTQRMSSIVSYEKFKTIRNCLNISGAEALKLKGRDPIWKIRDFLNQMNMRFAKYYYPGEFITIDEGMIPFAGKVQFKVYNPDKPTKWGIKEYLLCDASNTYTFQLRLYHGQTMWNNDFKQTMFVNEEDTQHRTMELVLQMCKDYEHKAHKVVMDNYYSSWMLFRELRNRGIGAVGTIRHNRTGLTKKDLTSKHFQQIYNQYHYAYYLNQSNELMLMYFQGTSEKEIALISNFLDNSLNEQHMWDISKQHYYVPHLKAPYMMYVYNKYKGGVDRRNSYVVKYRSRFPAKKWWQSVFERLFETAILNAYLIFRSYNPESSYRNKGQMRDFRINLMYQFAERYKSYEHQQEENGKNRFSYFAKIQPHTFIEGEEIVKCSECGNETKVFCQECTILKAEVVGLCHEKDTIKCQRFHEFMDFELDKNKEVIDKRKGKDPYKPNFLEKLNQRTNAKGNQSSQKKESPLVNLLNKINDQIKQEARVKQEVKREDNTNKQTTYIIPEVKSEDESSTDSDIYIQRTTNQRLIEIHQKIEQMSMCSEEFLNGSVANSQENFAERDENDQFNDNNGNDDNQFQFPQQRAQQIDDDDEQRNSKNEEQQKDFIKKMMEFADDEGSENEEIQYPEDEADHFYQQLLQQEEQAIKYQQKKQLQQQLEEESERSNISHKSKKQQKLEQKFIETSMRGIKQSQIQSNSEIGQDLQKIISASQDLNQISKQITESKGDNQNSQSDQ
As to the kind of experiment: DRaCALA; 400 nM protein; DRaCALA: 25 mM HEPES pH 7.5, 0.1 mg/ml BSA, 0.5 mM DTT, 100 mM NaCl, 25 nM DNA, no competitor, temperature not stated; EMSA: as in earlier paper, 5% acrylamide. Conditions: protein: recombinant; tags: N-terminal MBP; label: 32P at 5' end of top strand.

Data set [4] deals with T2, GST-Pgm(692-768) CRD (Paramecium tetraurelia, UniProt A0DFJ7 692-768).
T2 sequence: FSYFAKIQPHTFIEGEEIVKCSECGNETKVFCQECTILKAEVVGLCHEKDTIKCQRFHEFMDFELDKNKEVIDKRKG
As to the kind of experiment: DRaCALA; no competitor DNA; DRaCALA: 25 mM HEPES pH 7.5, 0.1 mg/ml BSA, 0.5 mM DTT, 100 mM NaCl, 25 nM DNA, no competitor, temperature not stated; EMSA: as in earlier paper, 5% acrylamide. Particulars: protein: recombinant; tags: N-terminal GST; label: 32P at 5' end of top strand. Background: In EMSA bound probe runs differently from free probe, usually more slowly.

For data set [5], the target named is T3, Pgm(692-768)* CRD (Paramecium tetraurelia, UniProt A0DFJ7 692-768).
T3 sequence: T2 sequence
As to the kind of experiment: NMR (1H-1H NOESY); equimolar DNA; 2 Zn2+ in protein; DRaCALA: 25 mM HEPES pH 7.5, 0.1 mg/ml BSA, 0.5 mM DTT, 100 mM NaCl, 25 nM DNA, no competitor, temperature not stated; EMSA: as in earlier paper, 5% acrylamide. Particulars: protein: recombinant; tags: GST cleaved by PreScission; seven linker residues left at N-terminus; blunt.

The target in data set [6] is T2, GST-Pgm(692-768) CRD. As to the kind of experiment: EMSA; DRaCALA: 25 mM HEPES pH 7.5, 0.1 mg/ml BSA, 0.5 mM DTT, 100 mM NaCl, 25 nM DNA, no competitor, temperature not stated; EMSA: as in earlier paper, 5% acrylamide. Particulars: protein: recombinant; tags: N-terminal GST; label: 32P.

Regarding H3(1–19) (peptide), the Kd in data set [1] turned out to be 289 µM.

In data set [2], MBP-Pgm(692–768) (domain or fragment) showed a reduction of the ELISA interaction signal relative to unmodified H3(1–19) of 30%.

B1: IES 51A1835 80-bp substrate (dsDNA)
DNA 1: ACTACTACATAATGCTAAACTCATTTATAGATGGATTGTTTTCCAAGTATCTATATCATCATGTGTTGCTAATAACCCTG
DNA 2: ATCGCAGGGTTATTAGCAACACATGATGATATAGATACTTGGAAAACAATCCATCTATAAATGAGTTTAGCATTATGTAGT
Consider B1, for which the binding result in data set [3] is “binds”; in data set [4], “no binding”.

B2: i1835 (NMR) (dsDNA)
DNA 1: CTACTACATAATGCTAAACTCATTTATAGATGGATTGTTTTCCAAGTATCTATATC
DNA 2: GATATAGATACTTGGAAAACAATCCATCTATAAATGAGTTTAGCATTATGTAGTAG
On to B2, for which the binding result in data set [5] is “no binding”.

B3: IES 51A4404 left end 70-bp substrate (dsDNA)
DNA 1: CTAGCTTACAACGCAGCTTGCACATCTCTAGTTGATGGTATTGTGGTGTTATTTTAAAAAGTAATATATT
DNA 2: CGATAATATATTACTTTTTAAAATAACACCACAATACCATCAACTAGAGATGTGCAAGCTGCGTTGTAAG
In the case of B3, the binding result in data set [6] is on record as “no binding”.

B4: i4404 (NMR) (dsDNA)
DNA 1: GCTTGCACATCTCTAGTTGATGG
DNA 2: CCATCAACTAGAGATGTGCAAGC
For the molecule B4, the binding result in data set [5] is on record as “no binding”.

The values above are taken from article PMC8086355, “The unusual structure of the PiggyMac cysteine-rich domain reveals zinc finger diversity in PiggyBac-related transposases”.
